Source: patent publication US20230303690A1 (published 2023)

T1: human LAG3 expressed on cells (human, UniProt P18627 23-525)
T1 construct: whole, on cells
T1 sequence (looked up): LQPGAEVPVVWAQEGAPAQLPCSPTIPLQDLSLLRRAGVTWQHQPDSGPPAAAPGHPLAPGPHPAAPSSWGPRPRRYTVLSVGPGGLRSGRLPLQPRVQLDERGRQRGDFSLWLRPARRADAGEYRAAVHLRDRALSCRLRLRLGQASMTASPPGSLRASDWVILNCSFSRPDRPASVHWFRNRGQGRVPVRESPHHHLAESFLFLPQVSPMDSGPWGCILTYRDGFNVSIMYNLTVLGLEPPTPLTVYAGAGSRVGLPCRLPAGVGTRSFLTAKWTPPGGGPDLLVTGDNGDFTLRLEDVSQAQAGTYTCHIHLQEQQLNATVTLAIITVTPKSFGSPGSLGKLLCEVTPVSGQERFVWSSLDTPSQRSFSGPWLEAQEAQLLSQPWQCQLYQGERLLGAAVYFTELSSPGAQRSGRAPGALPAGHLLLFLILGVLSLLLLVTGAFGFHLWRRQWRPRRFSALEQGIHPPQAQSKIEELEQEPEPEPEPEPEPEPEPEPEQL


Key:
[1] = biological target: human LAG3 expressed on cells (human) (UniProt P18627); test: cell-based or functional assay
[2] = biological target: T1, human LAG3 expressed on cells; test: cell ELISA, 293T-hLAG3 cells
Method: Each well was treated with stimulants. The cells were then fixed and blocked with Blocking buffer. The Primary antibodies were added. The wells were washed and a HRP-conjugated secondary antibody was added. The wells were washed with 1x PBS and a solution containing TMB (Biopanda, TMB-S-004) was added. The TMB reacted with HRP to change the color thereof from colorless to blue. An acid stop solution (Solarbio, C1058) was then added to stop the reaction and change the blue color to yellow.
Materials are listed below: [0072] […] 2) Blocking buffer: 1×PBS+3% BSA (Sigma, B2064); [0074] […] [0075] 4) Secondary antibody: Goat anti-human IgG1 Fc antibody, HRP (1:2500, invitrogen, A18817). [0076]

[3] = biological target: T1, human LAG3 expressed on cells; test: cell-based or functional assay

Row | Binder | Efficacy (Normalized to BMS) [1] [%] | IL-2, % of BMS, at 0.001016105 ug/mL [1] [%] | IL-2, % of BMS, at 0.003048316 ug/mL [1] [%] | IL-2, % of BMS, at 0.009144947 ug/mL [1] [%] | IL-2, % of BMS, at 0.027434842 ug/mL [1] [%] | IL-2, % of BMS, at 0.082304527 ug/mL [1] [%] | IL-2, % of BMS, at 0.24691358 ug/mL [1] [%] | IL-2, % of BMS, at 0.740740741 ug/mL [1] [%] | IL-2, % of BMS, at 2.222222222 ug/mL [1] [%] | IL-2, % of BMS, at 6.666666667 ug/mL [1] [%] | IL-2, % of BMS, at 20 ug/mL [1] [%] | Jurkat T-hLAG3 Assay EC50 [1] [nM] | EC50 [2] [nM] | OD450 at 0.0045725 ug/ml [2] | OD450 at 0.0137174 ug/ml [2] | OD450 at 0.0411523 ug/ml [2] | OD450 at 0.1234568 ug/ml [2] | OD450 at 0.3703704 ug/ml [2] | OD450 at 1.111111 ug/ml [2] | OD450 at 3.333333 ug/ml [2] | other results
1 | sdAb fusion 25-17-3 (Fc fusion, not shown: a dimerising Fc or GST) QLQLVESGGGLVQAGGSLRLSCAASGSIESFSFMGWYRQAPGKQRELVAGFTGAASLSFSTYTDAVKGRFTISRDNAKNTVYLQMNSLKPEDTAVYFCNVDPWSQSWPGRYWGQGTQVTVSSGGGGSGGGGSGGGGSQLQLVESGGGLVQPGGSLRLSCAASGLTLDGYAIGWFRQAPGKEREGLACISGSDGSTHYLDSVKGRFTISRDNGKNTMALQMNSLQFGDTAIYYCAARRGSCSGSWTYWGQGTQVTVSSEPKSCDKTHTCPPCPAPELLG | 102 | 0.000639 | 5.71 | 7.44 | 8.91 | 11.7 | 12.1 | 28.9 | 62.8 | 93.2 | 103 | 18.4 |  |  |  |  |  |  |  |  | 
2 | sdAb fusion 25-2015-2 (Fc fusion, not shown: a dimerising Fc or GST) QLQLVESGGGLVQAGGSLRLSCAASGSIESFSFMGWYRQAPGKQRELVAGFTGAASLSFSTYTDAVKGRFTISRDNAKNTVYLQMNSLKPEDTAVYFCNVDPWSQSWPGRYWGQGTQVTVSSGGGGSGGGGSQLQLVESGGGLAQTGGSLRLSCAAAGFTFDDTATGWFRQAPGKNREGVACISSSDGRIHYIDSAKGRFTISKDNAKKTVYLQMDSLKPEDTAVYYCAAARKGSTDCQGAIWGSWGQGTQVIVSSEPKSCDKTHTCPPCPAPELLG | 101 | 0.000334 | -15.6 | -12.5 | 20.8 | -0.802 | 20.9 | 59.4 | 83.2 | 88.3 | 96.6 | 5.13 |  |  |  |  |  |  |  |  | 
3 | sdAb No. 17-H1 (VHH, Modified sdAb No. 17 (CDR1 DG to DA); not shown: Fc part implied by anti-human IgG1 Fc detection) VHH: QLQLVESGGGLVQPGGSLRLSCAASGLTLDAYAIGWFRQAPGKEREGLACISGSDGSTHYLDSVKGRFTISRDNGKNTMALQMNSLQFGDTAIYYCAARRGSCSGSWTYWGQGTQVTVSS |  |  |  |  |  |  |  |  |  |  |  |  | 1.01 | 0.101 | 0.242 | 0.527 | 0.945 | 1.27 | 1.4 | 1.44 | OD450 at 10 ug/ml [2]: 1.5
4 | sdAb No. 17-H2 (VHH, Modified sdAb No. 17 (CDR1 DG to EG); not shown: Fc part implied by anti-human IgG1 Fc detection) VHH: QLQLVESGGGLVQPGGSLRLSCAASGLTLEGYAIGWFRQAPGKEREGLACISGSDGSTHYLDSVKGRFTISRDNGKNTMALQMNSLQFGDTAIYYCAARRGSCSGSWTYWGQGTQVTVSS |  |  |  |  |  |  |  |  |  |  |  |  | 1.07 | 0.105 | 0.238 | 0.458 | 0.9 | 1.25 | 1.35 | 1.28 | OD450 at 10 ug/ml [2]: 1.4
5 | sdAb No. 17-H3 (VHH, Modified sdAb No. 17 (CDR2 DG to DA); not shown: Fc part implied by anti-human IgG1 Fc detection) VHH: QLQLVESGGGLVQPGGSLRLSCAASGLTLDGYAIGWFRQAPGKEREGLACISGSDASTHYLDSVKGRFTISRDNGKNTMALQMNSLQFGDTAIYYCAARRGSCSGSWTYWGQGTQVTVSS |  |  |  |  |  |  |  |  |  |  |  |  | 1.01 | 0.096 | 0.208 | 0.43 | 0.818 | 1.11 | 1.21 | 1.13 | OD450 at 10 ug/ml [2]: 1.28
6 | sdAb No. 17-H4 (VHH, Modified sdAb No. 17 (CDR2 DG to EG); not shown: Fc part implied by anti-human IgG1 Fc detection) VHH: QLQLVESGGGLVQPGGSLRLSCAASGLTLDGYAIGWFRQAPGKEREGLACISGSEGSTHYLDSVKGRFTISRDNGKNTMALQMNSLQFGDTAIYYCAARRGSCSGSWTYWGQGTQVTVSS |  |  |  |  |  |  |  |  |  |  |  |  | 0.758 | 0.092 | 0.232 | 0.432 | 0.745 | 0.962 | 0.979 | 0.905 | OD450 at 10 ug/ml [2]: 1.18
7 | combination of sdAbs 25 and 2015 (other) VHH 1: QLQLVESGGGLVQAGGSLRLSCAASGSIESFSFMGWYRQAPGKQRELVAGFTGAASLSFSTYTDAVKGRFTISRDNAKNTVYLQMNSLKPEDTAVYFCNVDPWSQSWPGRYWGQGTQVTVSS VHH 2: QLQLVESGGGLAQTGGSLRLSCAAAGFTFDDTATGWFRQAPGKNREGVACISSSDGRIHYIDSAKGRFTISKDNAKKTVYLQMDSLKPEDTAVYYCAAARKGSTDCQGAIWGSWGQGTQVIVSS |  |  |  |  |  |  |  |  |  |  |  |  |  |  |  |  |  |  |  |  | IL-2, % of BMS, at 0.005080526 ug/mL [3]: 0.0473%; IL-2, % of BMS, at 0.015241579 ug/mL [3]: 0.883%; IL-2, % of BMS, at 0.045724737 ug/mL [3]: -2.03%; IL-2, % of BMS, at 0.137174211 ug/mL [3]: 0.439%; IL-2, % of BMS, at 0.411522634 ug/mL [3]: 3.96%; IL-2, % of BMS, at 1.234567901 ug/mL [3]: 18.9%; IL-2, % of BMS, at 3.703703704 ug/mL [3]: 43.6%; IL-2, % of BMS, at 11.11111111 ug/mL [3]: 52.5%; IL-2, % of BMS, at 33.33333333 ug/mL [3]: 50.7%; IL-2, % of BMS, at 100 ug/mL [3]: 62.2%
8 | sdAb fusion 25-2015-3 (Fc fusion, not shown: a dimerising Fc or GST) QLQLVESGGGLVQAGGSLRLSCAASGSIESFSFMGWYRQAPGKQRELVAGFTGAASLSFSTYTDAVKGRFTISRDNAKNTVYLQMNSLKPEDTAVYFCNVDPWSQSWPGRYWGQGTQVTVSSGGGGSGGGGSGGGGSQLQLVESGGGLAQTGGSLRLSCAAAGFTFDDTATGWFRQAPGKNREGVACISSSDGRIHYIDSAKGRFTISKDNAKKTVYLQMDSLKPEDTAVYYCAAARKGSTDCQGAIWGSWGQGTQVIVSSEPKSCDKTHTCPPCPAPELLG | 113 | 0 | 10.7 | 7.28 | 30.2 | 10.3 | 35.4 | 59.3 | 96.8 | 112 | 116 | 8.01 |  |  |  |  |  |  |  |  | 
9 | sdAb fusion 25-2015-1 (Fc fusion, not shown: a dimerising Fc or GST) QLQLVESGGGLVQAGGSLRLSCAASGSIESFSFMGWYRQAPGKQRELVAGFTGAASLSFSTYTDAVKGRFTISRDNAKNTVYLQMNSLKPEDTAVYFCNVDPWSQSWPGRYWGQGTQVTVSSGGGGSQLQLVESGGGLAQTGGSLRLSCAAAGFTFDDTATGWFRQAPGKNREGVACISSSDGRIHYIDSAKGRFTISKDNAKKTVYLQMDSLKPEDTAVYYCAAARKGSTDCQGAIWGSWGQGTQVIVSSEPKSCDKTHTCPPCPAPELLG | 114 | 0.000292 | 10.8 | 7.32 | 30.4 | 10.4 | 35.6 | 59.7 | 97.5 | 112 | 117 | 8.01 |  |  |  |  |  |  |  |  | 
